Measured values taken from US20110076268A1 (CRUCELL HOLLAND B V, published 2011).

Tests used:
[1] = biological target: F protein of MARM 19 (RSV A2 escape mutant generated against human Fab 19) (Respiratory Syncytial Virus strain A2) (UniProt P03420); assay: cell-based or functional assay
[2] = biological target: F protein of MARM 151 (RSV A2 escape mutant generated against murine mAb 151) (Respiratory Syncytial Virus strain A2) (UniProt P03420); assay: cell-based or functional assay
[3] = biological target: F protein of RSV B-wash (ATCC Cat. No. VR-1580, strain 18537) (Respiratory Syncytial Virus B, strain 18537) (UniProt P13843); assay: cell-based or functional assay
[4] = biological target: F protein of the motavizumab MARM (K272E) (Respiratory Syncytial Virus strain A2) (UniProt P03420); assay: cell-based or functional assay
[5] = biological target: F protein of the IgG form of 58C5 MARM (N63K, M115K and E295G) (Respiratory Syncytial Virus strain A2) (UniProt P03420); assay: cell-based or functional assay
[6] = biological target: F protein of MARM 1129 (RSV A2 escape mutant generated against murine mAb 1129) (Respiratory Syncytial Virus strain A2) (UniProt P03420); assay: cell-based or functional assay
[7] = biological target: F protein of RSV B-1 (ATCC Cat. No. 1400) (Respiratory Syncytial Virus B, strain B-1) (UniProt O36634); assay: cell-based or functional assay
[8] = biological target: T1, RSV strain A2 F protein (recombinant or native, not specified for Table 19) (Respiratory Syncytial Virus strain A2, UniProt P03420 26-524); assay: ELISA, IgG titrated on captured RSV F protein; EC50 estimated
T1 construct: also called RSV F Protein

For IgG form of 58c5 (antibody), the Average Plaque Count, 0.003 ug/ml [1] was 143 plaques, the Average Plaque Count, 0.016 ug/ml [1] was 135 plaques and the Average Plaque Count, 0.08 ug/ml [1] was 89.3 plaques. The Average Plaque Count, 0.4 ug/ml [1] was 72 plaques, the Average Plaque Count, 2 ug/ml [1] was 16.7 plaques and the Average Plaque Count, 10 ug/ml [1] was 0.7 plaques. The Plaque reduction rate, 0.003 ug/ml [1] was 8%, the Plaque reduction rate, 0.016 ug/ml [1] was 14% and the Plaque reduction rate, 0.08 ug/ml [1] was 42.7%. For the same molecule, the Plaque reduction rate, 0.4 ug/ml [1] was 53.8%, the Plaque reduction rate, 2 ug/ml [1] was 89% and the Plaque reduction rate, 10 ug/ml [1] was 100%. The Average Plaque Count, 0.003 ug/ml [2] was 151 plaques, the Average Plaque Count, 0.016 ug/ml [2] was 128 plaques and the Average Plaque Count, 0.08 ug/ml [2] was 112 plaques. The Average Plaque Count, 0.4 ug/ml [2] was 64.7 plaques, the Average Plaque Count, 2 ug/ml [2] was 15.3 plaques and the Average Plaque Count, 10 ug/ml [2] was 0 plaques. It also gave a Plaque reduction rate, 0.003 ug/ml [2] of 0%, a Plaque reduction rate, 0.016 ug/ml [2] of 15% and a Plaque reduction rate, 0.08 ug/ml [2] of 26%. For the same molecule, the Plaque reduction rate, 0.4 ug/ml [2] was 57%, the Plaque reduction rate, 2 ug/ml [2] was 90% and the Plaque reduction rate, 10 ug/ml [2] was 100%. The Average Plaque Count, 0.003 ug/ml [3] was 20.7 plaques, the Average Plaque Count, 0.016 ug/ml [3] was 16.3 plaques and the Average Plaque Count, 0.08 ug/ml [3] was 7.7 plaques. It also gave an Average Plaque Count, 0.4 ug/ml [3] of 1.3 plaques, an Average Plaque Count, 2 ug/ml [3] of 0 plaques and an Average Plaque Count, 10 ug/ml [3] of 0 plaques. For the same molecule, the Plaque reduction rate (%), 0.003 ug/ml [3] was 21%, the Plaque reduction rate (%), 0.016 ug/ml [3] was 38% and the Plaque reduction rate (%), 0.08 ug/ml [3] was 71%. The Plaque reduction rate (%), 0.4 ug/ml [3] was 95%, the Plaque reduction rate (%), 2 ug/ml [3] was 100% and the Plaque reduction rate (%), 10 ug/ml [3] was 100%. It also gave an ED50, neutralization of Motavizumab MARM [4] of 173 pM, a Plaque reduction rate, Motavizumab MARM, 3.2 ng/ml [4] of 1.5% and a Plaque reduction rate, Motavizumab MARM, 16 ng/ml [4] of 43%. It also gave a Plaque reduction rate, Motavizumab MARM, 80 ng/ml [4] of 74.6%, a Plaque reduction rate, Motavizumab MARM, 400 ng/ml [4] of 92% and a Plaque reduction rate, Motavizumab MARM, 2000 ng/ml [4] of 95.8%. It also gave a Plaque reduction rate, Motavizumab MARM, 10000 ng/ml [4] of 97.6%, an ED50, neutralization of IgG 58C5 MARM [5] greater than 66.7 nM and a Plaque reduction rate, IgG 58C5 MARM, 3.2 ng/ml [5] of 0%. For the same molecule, the Plaque reduction rate, IgG 58C5 MARM, 16 ng/ml [5] was 0%, the Plaque reduction rate, IgG 58C5 MARM, 80 ng/ml [5] was 0% and the Plaque reduction rate, IgG 58C5 MARM, 400 ng/ml [5] was 0%. For the same molecule, the Plaque reduction rate, IgG 58C5 MARM, 2000 ng/ml [5] was 0%, the Plaque reduction rate, IgG 58C5 MARM, 10000 ng/ml [5] was 3.3% and the Average Plaque Count, 0.003 ug/ml [6] was 17.7 plaques. For the same molecule, the Average Plaque Count, 0.016 ug/ml [6] was 11.7 plaques, the Average Plaque Count, 0.08 ug/ml [6] was 5.7 plaques and the Average Plaque Count, 0.4 ug/ml [6] was 2.3 plaques. The Average Plaque Count, 2 ug/ml [6] was 0 plaques, the Average Plaque Count, 10 ug/ml [6] was 0 plaques and the Plaque reduction rate, 0.003 ug/ml [6] was 21%. It also gave a Plaque reduction rate, 0.016 ug/ml [6] of 47%, a Plaque reduction rate, 0.08 ug/ml [6] of 74% and a Plaque reduction rate, 0.4 ug/ml [6] of 90%. It also gave a Plaque reduction rate, 2 ug/ml [6] of 100%, a Plaque reduction rate, 10 ug/ml [6] of 100% and an Average Plaque Count, 0.003 ug/ml [7] of 11.7 plaques. It also gave an Average Plaque Count, 0.016 ug/ml [7] of 9.3 plaques, an Average Plaque Count, 0.08 ug/ml [7] of 4 plaques and an Average Plaque Count, 0.4 ug/ml [7] of 0.3 plaques. For the same molecule, the Average Plaque Count, 2 ug/ml [7] was 0 plaques, the Average Plaque Count, 10 ug/ml [7] was 0 plaques and the Plaque reduction rate (%), 0.003 ug/ml [7] was 5%. The Plaque reduction rate (%), 0.016 ug/ml [7] was 24%, the Plaque reduction rate (%), 0.08 ug/ml [7] was 67.5% and the Plaque reduction rate (%), 0.4 ug/ml [7] was 97.6%. The Plaque reduction rate (%), 2 ug/ml [7] was 100% and the Plaque reduction rate (%), 10 ug/ml [7] was 100%.

B1: Motavizumab (antibody, V domains shown)
VH: QVTLRESGPALVKPTQTLTLTCTFSGFSLSTAGMSVGWIRQPPGKALEWLADIWWDDKKHYNPSLKDRLTISKDTSKNQVVLKVTNMDPADTATYYCARDMIFNFYFDVWGQGTTVTVSS
VL: DIQMTQSPSTLSASVGDRVTITCSASSRVGYMHWYQQKPGKAPKLLIYDTSKLASGVPSRFSGSGSGTEFTLTISSLQPDDFATYYCFQGSGYPFTFGGGTKVEIK
Work on B1 yielded an EC50 [8] of roughly 0.027 nM.
